Tests used:
[1] = target: hIL-10R1-Fc chimeric protein (extracellular domain of human IL-10 receptor 1 fused to Fc) (human) (UniProt Q13651); assay: ELISA; competitive displacement ELISA: hIL-10 (400 ng/mL) coated on Maxisorp wells; serially diluted IL-10 preincubated with 300 ng/mL hIL-10R1-Fc in PBS, 0.4% BSA, 0.02% Tween20 at 25 °C for 1 h, then transferred to the coated wells for 1 h at 25 °C; free hIL-10R1-Fc detected with anti-human IgG
[2] = target: hIL-10R1-Fc chimeric protein (extracellular domain of human IL-10 receptor 1 fused to Fc) (human) (UniProt Q13651)
[3] = target: hIL-10R1-Fc chimeric protein (extracellular domain of human IL-10 receptor 1 fused to Fc) (human) (UniProt Q13651); remark: listed apart in the source
[4] = target: hIL-10R1-Fc chimeric protein (extracellular domain of human IL-10 receptor 1 fused to Fc) (human) (UniProt Q13651); assay: ELISA; […] (400 ng/mL) […]
[5] = target: Orf virus interleukin-10, FLAG-tagged (Orf virus); assay: non-reducing SDS-PAGE with anti-FLAG Western blot
[6] = target: Pseudocowpox virus interleukin-10, FLAG-tagged (Pseudocowpox virus); assay: non-reducing SDS-PAGE with anti-FLAG Western blot; purified FLAG-tagged IL-10 mixed with SDS-PAGE sample buffer without DTT, without boiling; bands detected with HRP-conjugated anti-FLAG M2
[7] = target: T1, hIL-10R1-Fc chimeric protein (extracellular domain of human IL-10 receptor 1 fused to Fc) (human, UniProt Q13651 22-235); assay: ELISA; competitive displacement ELISA: hIL-10 (400 ng/mL) coated on Maxisorp wells; serially diluted IL-10 preincubated with 300 ng/mL hIL-10R1-Fc in PBS, 0.4% BSA, 0.02% Tween20 at 25 °C for 1 h, then transferred to the coated wells for 1 h at 25 °C; free hIL-10R1-Fc detected with anti-human IgG; details: both partners purified
T1 construct: human interleukin-10 receptor subunit 1 (IL-10R1), extracellular domain; No catalogue number printed; also called soluble hIL-10R1-Fc fusion protein; source: bought: R&D Systems
T1 sequence: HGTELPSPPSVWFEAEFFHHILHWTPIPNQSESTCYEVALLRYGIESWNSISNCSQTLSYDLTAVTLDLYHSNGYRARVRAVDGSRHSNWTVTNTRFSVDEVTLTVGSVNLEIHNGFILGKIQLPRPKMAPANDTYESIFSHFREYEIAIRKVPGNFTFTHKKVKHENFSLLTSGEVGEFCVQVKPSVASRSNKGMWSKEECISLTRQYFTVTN

Bovine papular stomatitis virus interleukin-10, FLAG-tagged (ligand)
Emax (Δ%) of hIL-10R1-Fc displacement, relative to hIL-10 [1]: 98.7 Δ%
pIC50 (negative log10 of the IC50) [1]: 8.72 M

Grey sealpox virus interleukin-10, FLAG-tagged (ligand)
Emax (Δ%, relative to hIL-10) of stimulation of murine MC/9 mast cell proliferation (with IL-3 and IL-4), 48 h [2]: 25.8 Δ%
pEC50 (M) of stimulation of murine MC/9 mast cell proliferation (with IL-3 and IL-4), 48 h [2]: 9.3 M (pEC50)
Emax (Δ%, relative to hIL-10) of inhibition of IL-1β production by LTA-stimulated human THP-1 monocytes, 48 h [3]: 25.8 Δ%
Emax (Δ%, relative to hIL-10) of inhibition of IL-8 production by LTA-stimulated human THP-1 monocytes, 24 h (pIC50 ND) [3]: 50.1 Δ%
Emax (Δ%, relative to hIL-10) of inhibition of MCP-1 production by LTA-stimulated human THP-1 monocytes, 24 h (pIC50 ND) [3]: 31 Δ%
pIC50 (M) of inhibition of IL-1β production by LTA-stimulated human THP-1 monocytes, 48 h [3]: 11 M (pIC50)

Orf virus interleukin-10, FLAG-tagged (ligand)
Emax (Δ%) of hIL-10R1-Fc displacement, relative to hIL-10 [4]: 105 Δ%
pIC50 (negative log10 of the IC50) [4]: 9.24 M
stoichiometry N [5]: 2

Pseudocowpox virus interleukin-10, FLAG-tagged (ligand)
Emax (Δ%) of hIL-10R1-Fc displacement, relative to hIL-10 [1]: 94.6 Δ%
pIC50 (negative log10 of the IC50) [1]: 7.66 M
stoichiometry N [6]: 2

Red deerpox virus interleukin-10, FLAG-tagged (ligand)
Emax (Δ%) of hIL-10R1-Fc displacement, relative to hIL-10 [1]: 108 Δ%
pIC50 (negative log10 of the IC50) [1]: 9.51 M

B1: human interleukin-10, FLAG-tagged (ligand, UniProt P22301 19-178, looked up)
chain: SPGQGTQSENSCTHFPGNLPNMLRDLRDAFSRVKTFFQMKDQLDNLLLKESLLEDFKGYLGCQALSEMIQFYLEEVMPQAENQDPDIKAHVNSLGENLKTLRLRLRRCHRFLPCENKSKAVEQVKNAFNKLQEKGIYKAMSEFDIFINYIEAYMTMKIRN
notes: also called hIL-10; human IL-10; not shown: FLAG, C-terminal, kept
Emax (Δ%) of hIL-10R1-Fc displacement, relative to hIL-10 [7]: 100 Δ%
pIC50 (negative log10 of the IC50) [7]: 8.79
